T1: DFNB31_3, Q9P202
T1 sequence (Q9P202 811-907, limits assumed, looked up): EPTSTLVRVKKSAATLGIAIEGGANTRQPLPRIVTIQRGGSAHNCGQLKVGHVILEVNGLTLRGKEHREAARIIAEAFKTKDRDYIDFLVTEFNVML

T2: DVL3, Q92997
T2 sequence (Q92997 244-331, limits assumed, looked up): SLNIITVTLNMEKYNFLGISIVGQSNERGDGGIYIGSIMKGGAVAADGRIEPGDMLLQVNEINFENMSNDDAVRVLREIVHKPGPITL

T3: GRIP1_2, Q9Y3R0
T3 sequence (Q9Y3R0 145-248, limits assumed, looked up): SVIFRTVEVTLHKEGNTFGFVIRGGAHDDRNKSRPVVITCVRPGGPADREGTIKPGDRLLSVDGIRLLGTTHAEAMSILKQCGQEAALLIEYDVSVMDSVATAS

T4: GRIP1_3, Q9Y3R0
T4 sequence (Q9Y3R0 247-346, limits assumed, looked up): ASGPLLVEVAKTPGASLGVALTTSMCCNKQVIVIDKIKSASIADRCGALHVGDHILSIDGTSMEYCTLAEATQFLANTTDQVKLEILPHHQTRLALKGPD

T5: GRIP1_5, Q9Y3R0
T5 sequence (Q9Y3R0 568-668, limits assumed, looked up): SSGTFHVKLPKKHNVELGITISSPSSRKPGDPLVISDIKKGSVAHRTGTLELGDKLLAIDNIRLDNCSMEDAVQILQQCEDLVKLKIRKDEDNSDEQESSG

T6: LIN7A, O14910
T6 sequence (O14910 103-200, limits assumed, looked up): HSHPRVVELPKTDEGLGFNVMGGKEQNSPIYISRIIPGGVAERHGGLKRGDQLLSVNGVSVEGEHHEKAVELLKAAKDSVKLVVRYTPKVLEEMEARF

T7: PDZRN3_1, Q9UPQ7
T7 sequence (Q9UPQ7 244-349, limits assumed, looked up): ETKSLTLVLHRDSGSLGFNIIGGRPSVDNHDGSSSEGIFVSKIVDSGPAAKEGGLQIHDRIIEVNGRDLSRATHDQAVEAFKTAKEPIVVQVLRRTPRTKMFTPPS

T8: RADIL, Q96JH8
T8 sequence (Q96JH8 971-1071, limits assumed, looked up): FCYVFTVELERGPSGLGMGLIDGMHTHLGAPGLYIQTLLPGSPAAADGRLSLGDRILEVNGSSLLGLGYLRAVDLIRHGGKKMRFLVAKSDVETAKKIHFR

T9: RAPGEF6, Q8TEU7
T9 sequence (Q8TEU7 525-625, limits assumed, looked up): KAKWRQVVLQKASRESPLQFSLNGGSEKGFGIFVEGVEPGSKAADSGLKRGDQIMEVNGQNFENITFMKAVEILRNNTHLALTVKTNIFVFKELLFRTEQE

T10: RHPN1, Q8TCX5
T10 sequence (Q8TCX5 508-602, limits assumed, looked up): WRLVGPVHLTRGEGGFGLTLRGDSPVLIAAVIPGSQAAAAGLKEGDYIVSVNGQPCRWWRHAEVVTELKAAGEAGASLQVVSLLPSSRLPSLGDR


Tests used:
Test in all cases: holdup assay
Design in all cases: key: below the threshold = too weak to quantify, mostly under pKd 3.1 to 4
Conditions in all cases: plain residues with an end cap or a label only (N-terminal biotin on a linker: ado-ado)
DFNB31_3, Q9P202 = molecular target: T1, DFNB31_3, Q9P202
DLG4_2, P78352 = molecular target: DLG4_2, P78352
DLG4_2, P78352, sequence (P78352 155-259): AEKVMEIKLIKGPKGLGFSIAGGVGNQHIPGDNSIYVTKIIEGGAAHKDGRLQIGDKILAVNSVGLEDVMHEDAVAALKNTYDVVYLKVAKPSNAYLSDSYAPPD

DLG4_3, P78352 = molecular target: DLG4_3, P78352
DLG4_3, P78352, sequence (P78352 306-403): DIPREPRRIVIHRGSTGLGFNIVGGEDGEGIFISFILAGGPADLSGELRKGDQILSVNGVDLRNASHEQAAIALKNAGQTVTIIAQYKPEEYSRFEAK

DVL3, Q92997 = molecular target: T2, DVL3, Q92997
GIPC2, Q8TF65 = molecular target: GIPC2, Q8TF65
GIPC2, Q8TF65, sequence (Q8TF65 112-203): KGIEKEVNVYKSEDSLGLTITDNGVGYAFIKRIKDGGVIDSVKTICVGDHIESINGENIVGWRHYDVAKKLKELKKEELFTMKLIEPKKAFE

GORASP1, Q9BQQ3 = molecular target: GORASP1, Q9BQQ3
GORASP1, Q9BQQ3, sequence (Q9BQQ3 1-208): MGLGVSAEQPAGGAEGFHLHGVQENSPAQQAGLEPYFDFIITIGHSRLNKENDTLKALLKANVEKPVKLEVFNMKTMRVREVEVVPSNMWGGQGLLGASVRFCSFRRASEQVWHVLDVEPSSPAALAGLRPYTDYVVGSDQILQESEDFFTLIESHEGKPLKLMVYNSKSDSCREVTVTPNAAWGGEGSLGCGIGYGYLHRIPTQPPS

GORASP2, Q9H8Y8 = molecular target: GORASP2, Q9H8Y8
GRIP1_2, Q9Y3R0 = molecular target: T3, GRIP1_2, Q9Y3R0
GRIP1_3, Q9Y3R0 = molecular target: T4, GRIP1_3, Q9Y3R0
GRIP1_5, Q9Y3R0 = molecular target: T5, GRIP1_5, Q9Y3R0
HTRA1, Q92743 = molecular target: HTRA1, Q92743
HTRA1, Q92743, sequence (Q92743 360-477): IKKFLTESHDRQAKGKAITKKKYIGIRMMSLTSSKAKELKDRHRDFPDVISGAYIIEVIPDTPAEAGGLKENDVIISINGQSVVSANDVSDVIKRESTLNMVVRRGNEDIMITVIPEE

Inadl_10, Q8NI35 = molecular target: Inadl_10, Q8NI35
Inadl_10, Q8NI35, sequence (Q8NI35 1673-1763): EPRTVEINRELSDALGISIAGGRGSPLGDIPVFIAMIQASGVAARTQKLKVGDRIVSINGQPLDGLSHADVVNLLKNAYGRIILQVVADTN

LIN7A, O14910 = molecular target: T6, LIN7A, O14910
LNX1_1, Q8TBB1 = molecular target: LNX1_1, Q8TBB1
LNX1_1, Q8TBB1, sequence (Q8TBB1 261-371): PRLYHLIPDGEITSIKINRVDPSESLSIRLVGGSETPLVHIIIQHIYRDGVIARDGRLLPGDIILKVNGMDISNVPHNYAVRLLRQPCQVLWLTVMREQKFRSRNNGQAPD

LNX1_3, Q8TBB1 = molecular target: LNX1_3, Q8TBB1
LNX1_3, Q8TBB1, sequence (Q8TBB1 500-596): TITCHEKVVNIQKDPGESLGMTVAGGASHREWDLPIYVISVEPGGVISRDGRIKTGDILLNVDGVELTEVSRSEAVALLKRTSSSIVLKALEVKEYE

MAGI1_1, Q96QZ7 = molecular target: MAGI1_1, Q96QZ7
MAGI1_1, Q96QZ7, sequence (Q96QZ7 1-106): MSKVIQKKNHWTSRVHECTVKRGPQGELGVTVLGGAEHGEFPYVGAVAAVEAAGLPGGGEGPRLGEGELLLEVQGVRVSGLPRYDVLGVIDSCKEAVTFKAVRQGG

MAST2, Q6P0Q8 = molecular target: MAST2, Q6P0Q8
MAST2, Q6P0Q8, sequence (Q6P0Q8 1099-1202): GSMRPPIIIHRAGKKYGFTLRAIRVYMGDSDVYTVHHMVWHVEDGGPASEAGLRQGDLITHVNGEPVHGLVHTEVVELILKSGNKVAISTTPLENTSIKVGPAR

NHERF4_2, Q86UT5 = molecular target: NHERF4_2, Q86UT5
NHERF4_2, Q86UT5, sequence (Q86UT5 220-308): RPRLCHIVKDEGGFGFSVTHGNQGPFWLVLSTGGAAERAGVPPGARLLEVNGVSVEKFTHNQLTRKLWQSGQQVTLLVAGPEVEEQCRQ

NHERF4_4, Q86UT5 = molecular target: NHERF4_4, Q86UT5
NHERF4_4, Q86UT5, sequence (Q86UT5 464-550): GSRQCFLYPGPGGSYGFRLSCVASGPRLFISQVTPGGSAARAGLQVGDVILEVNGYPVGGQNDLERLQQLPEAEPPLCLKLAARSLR

PDLIM1, O00151 = molecular target: PDLIM1, O00151
PDLIM1, O00151, sequence (O00151 1-87): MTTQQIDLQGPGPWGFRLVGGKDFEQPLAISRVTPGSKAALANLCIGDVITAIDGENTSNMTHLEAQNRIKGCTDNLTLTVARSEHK

PDZRN3_1, Q9UPQ7 = molecular target: T7, PDZRN3_1, Q9UPQ7
PDZRN4_1, Q6ZMN7 = molecular target: PDZRN4_1, Q6ZMN7
PDZRN4_1, Q6ZMN7, sequence (Q6ZMN7 213-318): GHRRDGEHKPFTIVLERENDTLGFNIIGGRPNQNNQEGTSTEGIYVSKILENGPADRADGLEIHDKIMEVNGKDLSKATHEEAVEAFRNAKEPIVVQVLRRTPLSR

RADIL, Q96JH8 = molecular target: T8, RADIL, Q96JH8
RAPGEF6, Q8TEU7 = molecular target: T9, RAPGEF6, Q8TEU7
RHPN1, Q8TCX5 = molecular target: T10, RHPN1, Q8TCX5
SCRIB_1, Q14160 = molecular target: SCRIB_1, Q14160
SCRIB_1, Q14160, sequence (Q14160 718-814): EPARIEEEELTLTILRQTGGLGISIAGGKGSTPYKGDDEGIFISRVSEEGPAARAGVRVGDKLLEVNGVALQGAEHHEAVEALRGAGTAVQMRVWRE

TJP2_1, Q9UDY2 = molecular target: TJP2_1, Q9UDY2
TJP2_1, Q9UDY2, sequence (Q9UDY2 24-128): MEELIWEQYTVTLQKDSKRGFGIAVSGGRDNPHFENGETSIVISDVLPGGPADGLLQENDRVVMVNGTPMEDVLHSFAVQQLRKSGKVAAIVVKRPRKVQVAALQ

Binder | pKd (DFNB31_3, Q9P202) | pKd (DLG4_2, P78352) | pKd (DLG4_3, P78352) | pKd (DVL3, Q92997) | pKd (GIPC2, Q8TF65) | pKd (GORASP1, Q9BQQ3) | pKd (GORASP2, Q9H8Y8) | pKd (GRIP1_2, Q9Y3R0) | pKd (GRIP1_3, Q9Y3R0) | pKd (GRIP1_5, Q9Y3R0) | pKd (HTRA1, Q92743) | pKd (Inadl_10, Q8NI35) | pKd (LIN7A, O14910) | pKd (LNX1_1, Q8TBB1) | pKd (LNX1_3, Q8TBB1) | pKd (MAGI1_1, Q96QZ7) | pKd (MAST2, Q6P0Q8) | pKd (NHERF4_2, Q86UT5) | pKd (NHERF4_4, Q86UT5) | pKd (PDLIM1, O00151) | also measured
FNSYSLTGYV [CLDN2, P57739] | below the threshold | 3.56 | below the threshold | 3.81 | below the threshold | 4.14 | 4.36 | below the threshold | below the threshold | below the threshold | 4.4 | below the threshold | below the threshold | 3.94 | below the threshold | below the threshold | 3.77 | below the threshold | 3.99 | below the threshold | pKd (PDZRN3_1, Q9UPQ7): below the threshold; pKd (PDZRN4_1, Q6ZMN7): 3.49; pKd (RADIL, Q96JH8): 4.99; pKd (RAPGEF6, Q8TEU7): below the threshold; pKd (RHPN1, Q8TCX5): below the threshold; pKd (SCRIB_1, Q14160): below the threshold; pKd (TJP2_1, Q9UDY2): 4.84
QGPVETESVV [SLC45A4, Q5BKX6] | below the threshold | 4.59 | below the threshold | below the threshold | 4.37 | 3.65 | 3.53 | below the threshold | below the threshold | below the threshold | 4.55 | below the threshold | below the threshold | 3.95 | below the threshold | below the threshold | 4.73 | below the threshold | below the threshold | below the threshold | pKd (PDZRN3_1, Q9UPQ7): 3.72; pKd (PDZRN4_1, Q6ZMN7): 3.64; pKd (RADIL, Q96JH8): 4.05; pKd (RAPGEF6, Q8TEU7): below the threshold; pKd (RHPN1, Q8TCX5): 4.47; pKd (SCRIB_1, Q14160): 3.72; pKd (TJP2_1, Q9UDY2): below the threshold
KKAPTNEFYA [SDC4, P31431] | 3.85 | below the threshold | below the threshold | below the threshold | below the threshold | below the threshold | below the threshold | below the threshold | below the threshold | below the threshold | 4.41 | below the threshold | below the threshold | below the threshold | below the threshold | below the threshold | below the threshold | below the threshold | below the threshold | below the threshold | pKd (PDZRN3_1, Q9UPQ7): below the threshold; pKd (PDZRN4_1, Q6ZMN7): below the threshold; pKd (RADIL, Q96JH8): below the threshold; pKd (RAPGEF6, Q8TEU7): below the threshold; pKd (RHPN1, Q8TCX5): below the threshold; pKd (SCRIB_1, Q14160): below the threshold; pKd (TJP2_1, Q9UDY2): below the threshold
VKPQVSESKL [ACOT8, O14734] | 3.71 | below the threshold | below the threshold | below the threshold | below the threshold | below the threshold | below the threshold | below the threshold | below the threshold | below the threshold | below the threshold | below the threshold | below the threshold | below the threshold | below the threshold | below the threshold | 5.52 | below the threshold | below the threshold | below the threshold | pKd (PDZRN3_1, Q9UPQ7): 3.68; pKd (PDZRN4_1, Q6ZMN7): 3.83; pKd (RADIL, Q96JH8): below the threshold; pKd (RAPGEF6, Q8TEU7): below the threshold; pKd (RHPN1, Q8TCX5): 4.07; pKd (SCRIB_1, Q14160): 4.32; pKd (TJP2_1, Q9UDY2): below the threshold
